Assay results as given in the nanobody polyreactivity screen of Harvey et al. (2022).

Test: yeast display, Sf9 membrane polyspecificity reagent, FACS + sequencing; frameworks hold sequencing errors
Method in brief: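 Nanobodies from a synthetic yeast display library (Saccharomyces cerevisiae BJ5465), induced 36–48 hours with galactose, were stained 1 hour at 4 °C with 10% biotinylated, detergent-solubilized Sf9 membrane reagent, enriched on streptavidin microbeads, then FACS-sorted. Anti-HA (expression) and streptavidin (reagent binding) fluorescence set low and high (top ~1%) gates. Polyreactivity labels come from the gate of origin. Genes were colony-PCR amplified, MiSeq 2 × 250 sequenced and filtered by CDR length.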

| Sequence | polyreactivity (PSR sort gate) |
| --- | --- |
| QVQLVESGGGLVQAGGSLRLSCAASGFIFYDYAMGWYRQGPGKERELGAAISSTAFGTYYADSVKGRFTISRDKAKNTVYLQMNILKPEDTAVYYCAAAVSPHSEGFGEYNDWGQGTQVTVSS | low polyreactivity |
| QVQLVESGGGLVQAGGSLRLICAASGGTFRAYVMGWYTQAPGKERELVAAISRSGTRTYYSDSVKGRFTISRDNAKNTVYFQMNSLKPEDTAVYYCAAAAKSWLFDYWGQGTLVTVSS | high polyreactivity |
| QVQLVESGGGLVQAGGSLRLSCAASGLTYSNAMGCYRQAPGKERELVAAISWRGGRTYYADSVKGRFTISRDNAKNTVYLQMNSLKPEDTAVYYCAKYAHGHKWYGYWGQGNQVTVSS | low polyreactivity |
| QVQLLESGGGLVQAGGSLRLSCASSGRTYWYYAMGWYRQAPGKERELVATITRSTGSTYYADSVKGRFTISRDNAKNTGYLQMNSLKPEDTAVYYCARLYYFNGDYWGQGTQVTVSS | high polyreactivity |
| QVQLVESGGGLVQAGGSLRLSCAASGRTFTYYAMGWYRQAPGKERKLVAAISQRGGGTYYADSVKGRFTISRDNAKNTVYLQMNSLKPEDTAVYYCAARWRLSGYDYWGQGTQVTVSS | high polyreactivity |
| QVQLVESGGGLVQAGGSLRLSCAASGFTFKYKAMGWYRQAPGKERELVAVISSSGGRTYYADSVKGRFTISRDNAKNTVYLQMNSLKPEDTAVYYCAADTFVWADWSWHYYWRQGTQVTVSS | high polyreactivity |
| QVQLVESGGGLVQAGGSLRLSCAASGITFGYNAMGWYIQAPGKERELVASISYSGDSTYYADSVKGRFTISRDNAKNTVYLLMNSLKPEDTAVYYCNVRNRPGGEINDYDYWGQGTQVTVSS | low polyreactivity |
| QVQLVESGGGLVQAGGSLRLSCAASGRTFGLNAMGWYRQAPGKERELVAAITSGGSTYYADSVKGRFTISRDNAKNTVYLQMNSLKPEDTAVYYCAARYWRSYGISDILSDVDYWGQGTQVTVSS | low polyreactivity |
| QVQLVESGGGLVQAGGSLRLSCAASGNIFIYNAMGWNRQAPGKERELVAAISVSGGDTYYADSVKGRFTISRDNAKYTVYLQLNSLKPEDTAVYYCAAEAEYIELDYWGQGTQVTVSS | low polyreactivity |
| QVQLVESGGGLVQAGGSLRLSCAASGRIYSVYAMGWYRQAPGKERELVAAIRSGDRTNYADSVKGRFTISRDNAKNTVYLQMNSLKPEDTAVYYCAAVQRPYYYWGQGTQVTVSS | high polyreactivity |
| QVQLVESCGGLVQAGGSLRLSCAASGFIFLPYVMGWYRQAPGKERELVAAISGGGGITYYADSVKGRFTISRDNAKNTVYLQMNSLKPEDTAVYYCAAERPVAPYDYWGQGTQVTVSS | low polyreactivity |
| QVQLVDSGGGLVQAGGSLRLSCAASGITFNLYAMGWYRQAPGKERELVAAISNVGSTKYADSVKGRFTISRDNAKNTVYLQMTSLKPEDTAVYYCAADWDRYPDYDYWGQGTQVTVSS | low polyreactivity |
| QVQLVESGGGLVQAGGSLRLSCAASGSTLGRYAMGWYRQAPGKERELVAAISSSGTTYYADSVKGRITISRDNAKNTVYLQMNSLKPEDTAVYYCNARGFRVARHAAWYQYDYWGQGTQVTVSS | high polyreactivity |
| QVQLVESGGGLVQAGGSLRLSCAASGRTFYYYAMGGYRQAPGKERELVAAIRGGGGSTYADSVKGRFTISRDNAKNTVYLQMNSLKPEDTAVYYCNVVRTGRYPGFLTFDYWGQGTQVTVSS | high polyreactivity |
| QVQLVESGGGLVQAGGSLRLSSAASGRTFRWYTMGWYRQAPGKERELVAAISYSGGRTYYADSVKGRFTISRDNAKNTVYLQMNSLKPEDTAVYYCNKRGPSYWRYVETSEYYYWGQGTQVTVSS | high polyreactivity |
| QVQLVESGGGLVQAGGSLRLSCAASGSIFIYYTMGWYRQAPGKERELVAAISWRGGRTYYADSVKGRFTISRDNAKNTVYLQMNSLKPEDTAVYYCNAQPSVYYGRWGLNYGYWGQGTQVTVSS | high polyreactivity |
| QVQLVESGGGLVQAGGSLRLRCAASGSILYSYTMGWYRQAPGKERELVAALIRGGRTNYADSVKGRFTISRDNAKNTVYLQMNSLKPEDTAVYYCNTGSYAWSWRRAMDYWGQGTQVTVSS | high polyreactivity |
